Publication PMC4337892 (Molecular cell, 2014)

T1: H. sapiens laforin residues 1-328, wild-type (human), O95278
T1 chain: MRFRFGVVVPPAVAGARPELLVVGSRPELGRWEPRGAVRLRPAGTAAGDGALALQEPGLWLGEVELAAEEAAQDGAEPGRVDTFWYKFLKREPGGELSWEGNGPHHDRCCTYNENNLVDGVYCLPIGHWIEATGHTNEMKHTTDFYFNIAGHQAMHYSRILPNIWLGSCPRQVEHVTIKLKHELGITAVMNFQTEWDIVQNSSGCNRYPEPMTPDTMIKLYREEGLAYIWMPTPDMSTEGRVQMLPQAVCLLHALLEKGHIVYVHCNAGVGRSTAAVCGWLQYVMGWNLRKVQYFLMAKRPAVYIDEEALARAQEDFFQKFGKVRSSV


What was measured:
[1] = biological target: T1, H. sapiens laforin residues 1-328, …; test: AUC; details: remark: other sources report otherwise
SEC-SAXS = biological target: the molecule itself; test: SEC-SAXS

stoichiometry N [1]	Binder	stoichiometry N (SEC-SAXS)
2	H. sapiens laforin residues 1-328, wild-type, O95278 1-328 (enzyme) MRFRFGVVVPPAVAGARPELLVVGSRPELGRWEPRGAVRLRPAGTAAGDGALALQEPGLWLGEVELAAEEAAQDGAEPGRVDTFWYKFLKREPGGELSWEGNGPHHDRCCTYNENNLVDGVYCLPIGHWIEATGHTNEMKHTTDFYFNIAGHQAMHYSRILPNIWLGSCPRQVEHVTIKLKHELGITAVMNFQTEWDIVQNSSGCNRYPEPMTPDTMIKLYREEGLAYIWMPTPDMSTEGRVQMLPQAVCLLHALLEKGHIVYVHCNAGVGRSTAAVCGWLQYVMGWNLRKVQYFLMAKRPAVYIDEEALARAQEDFFQKFGKVRSSV	–
–	H. sapiens laforin residues 1-328, C266S (enzyme, human, UniProt O95278 1-328, looked up) MRFRFGVVVPPAVAGARPELLVVGSRPELGRWEPRGAVRLRPAGTAAGDGALALQEPGLWLGEVELAAEEAAQDGAEPGRVDTFWYKFLKREPGGELSWEGNGPHHDRCCTYNENNLVDGVYCLPIGHWIEATGHTNEMKHTTDFYFNIAGHQAMHYSRILPNIWLGSCPRQVEHVTIKLKHELGITAVMNFQTEWDIVQNSSGCNRYPEPMTPDTMIKLYREEGLAYIWMPTPDMSTEGRVQMLPQAVCLLHALLEKGHIVYVHSNAGVGRSTAAVCGWLQYVMGWNLRKVQYFLMAKRPAVYIDEEALARAQEDFFQKFGKVRSSV	2
